Test results as given in article PMC7946963, “Phosphorylation regulates the binding of autophagy receptors to FIP200 Claw domain for selective autophagy initiation” (Nature Communications, 2021).
Square brackets hold non-standard residues; d marks the D form. Ends that are not written are not given here. * marks the point of attachment. FITC = O=C1OC2(c3ccc(O)cc3Oc3cc(O)ccc32)c2ccc(NC(=S)*)cc21; pS = N[C@@H](COP(=O)(O)O)C(=O)O

B1: nano-FIP200(1450–1594) (domain or fragment, human, UniProt Q8TDY2 1450-1594, looked up)
chain: HMLSEEKQRIMLLERTLQLKEEENKRLNQRLMSQSMSSVSSRHSEKIAIRDFQVGDLVLIILDERHDNYVLFTVSPTLYFLHSESLPALDLKPGEGASGASRRPWVLGKVMEKEYCQAKKAQNRFKVPLGTKFYRVKAVSWNKKV
notes: FIP200 (RB1CC1), human, residues 1450-1594; the construct of the analytical gel filtration with Optineurin fragments; also called FIP200 Claw domain; source: E. coli BL21 (DE3), purified (Ni-NTA, size-exclusion chromatography)
B2: CCPG1 FIR2 S104E (phosphomimetic mutant, residues 99–113) (domain or fragment, human, UniProt Q9ULG6 99-113, looked up)
chain: TASDDEDIVTLEPPK
notes: CCPG1, human, FIR2, residues 99-113; also called phosphomimetic S104E mutant of CCPG1 FIR2; source: E. coli BL21 (DE3), purified (Ni-NTA, size-exclusion chromatography)
B3: S177-phosphorylated Optineurin LIR synthetic peptide (p-Optineurin LIR) (peptide)
peptide: SSED[pS]FVEIRMAE
modifications: also: N-terminal FITC in fluorescence polarisation assay only
notes: source: synthetic peptide, bought: ChinaPeptides (>98% pure)
B4: FIP200 Claw domain (residues 1490–1594) (domain or fragment, human, UniProt Q8TDY2 1490-1594, looked up)
chain: SRHSEKIAIRDFQVGDLVLIILDERHDNYVLFTVSPTLYFLHSESLPALDLKPGEGASGASRRPWVLGKVMEKEYCQAKKAQNRFKVPLGTKFYRVKAVSWNKKV
notes: 15N-labelled in the NMR titrations; also called RB1CC1; source: E. coli BL21 (DE3), purified (Ni-NTA, size-exclusion chromatography); not shown: Trx (inferred from the cleaved 3C protease site), N-terminal, cleaved; His6, N-terminal, cleaved
B5: Optineurin LIR synthetic peptide (un-phosphorylated) (peptide)
peptide: {FITC}-SSEDSFVEIRMAE
notes: Optineurin, human, LIR region; also called un-phosphorylated Optineurin LIR peptide; source: synthetic peptide, bought: ChinaPeptides (>98% pure)
B6: Optineurin(169–185) S177E (phosphomimetic mutant) (domain or fragment, human, UniProt Q96CV9 169-185, looked up)
chain: NSSGSSEDEFVEIRMAE
notes: also called S177E mutant of Optineurin LIR; source: E. coli BL21 (DE3), purified (Ni-NTA, size-exclusion chromatography)
B7: Optineurin(169–185) S177E/F178Y (domain or fragment, human, UniProt Q96CV9 169-185, looked up)
chain: NSSGSSEDEYVEIRMAE
notes: also called F178 of the S177E mutant of Optineurin LIR replaced by Tyr; source: E. coli BL21 (DE3), purified (Ni-NTA, size-exclusion chromatography)
B8: Optineurin(169–185) S177E/F178W (domain or fragment, human, UniProt Q96CV9 169-185, looked up)
chain: NSSGSSEDEWVEIRMAE
notes: also called F178 of the S177E mutant of Optineurin LIR replaced by Trp; source: E. coli BL21 (DE3), purified (Ni-NTA, size-exclusion chromatography)
B9: CCPG1 FIR2 synthetic peptide (residues 99–113) (peptide)
peptide: TASDDSDIVTLEPPK
modifications: also: FITC on N-terminus in fluorescence polarisation assay only
notes: The results speak of a 13-residue peptide; also called un-phosphorylated CCPG1 FIR2; wild-type CCPG1 FIR2; source: synthetic peptide, bought: ChinaPeptides (>98% pure)

What was measured:
[1] = target: T1, p-Optineurin(33–209), Optineurin(33–209) phosphorylated by TBK1 (human, UniProt Q96CV9 33-209, phosphoserine at 177 (the major site phosphorylated by TBK1, by mass spectrometry)); experiment: SEC; analytical gel filtration of purified proteins and their mixtures; Superose 200 increase 10/300 GL; 20 mM Tris-HCl pH 7.9, 100 mM NaCl, 1 mM DTT; conditions: both partners purified
T1 construct: S177 is called the major site; other phosphorylated sites are not excluded; source: E. coli BL21 (DE3), purified; phosphorylated in vitro by purified Trx-TBK1(1–674) from Sf9 cells
T1 sequence (Q96CV9 33-209): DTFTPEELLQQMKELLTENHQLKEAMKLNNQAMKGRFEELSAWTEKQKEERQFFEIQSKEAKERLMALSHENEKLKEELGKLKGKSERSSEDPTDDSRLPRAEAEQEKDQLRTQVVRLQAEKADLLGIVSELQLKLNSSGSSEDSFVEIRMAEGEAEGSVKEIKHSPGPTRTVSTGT

[2] = target: B4; experiment: AUC; sedimentation velocity, 142,250 x g, 20 °C; FIP200(1490–1594) alone, CCPG1 FIR2 S104E alone, and FIP200(1490–1594) mixed with excess CCPG1 FIR2 S104E; conditions: both partners purified
[3] = target: B4; experiment: fluorescence polarisation; FITC-labeled peptide (~0.25 μM) titrated with increasing amounts of protein; 20 mM Tris pH 7.9, 100 mM NaCl, 1 mM DTT, 25 °C; one-site binding model; conditions: both partners purified
[4] = target: the molecule itself; experiment: AUC; sedimentation velocity, 142,250 x g, 20 °C; FIP200(1490–1594) alone, CCPG1 FIR2 S104E alone, and FIP200(1490–1594) mixed with excess CCPG1 FIR2 S104E
nano-FIP200(1450–1594) = target: B1; experiment: SEC; analytical gel filtration of purified proteins and their mixtures; Superose 200 increase 10/300 GL; 20 mM Tris-HCl pH 7.9, 100 mM NaCl, 1 mM DTT; conditions: both partners purified
GABARAP = target: T2, GABARAP (UniProt O95166 1-117); experiment: fluorescence polarisation; FITC-labeled peptide (~0.25 μM) titrated with increasing amounts of protein; 20 mM Tris pH 7.9, 100 mM NaCl, 1 mM DTT, 25 °C; one-site binding model; conditions: both partners purified
T2 construct: GABARAP, one of the six mammalian ATG8 family proteins; construct not described; also called ATG8 family protein; mammalian ATG8 orthologue; source: bacteria (15N-labelled form grown in M9 minimal medium); construct not described
T2 sequence (O95166 whole entry): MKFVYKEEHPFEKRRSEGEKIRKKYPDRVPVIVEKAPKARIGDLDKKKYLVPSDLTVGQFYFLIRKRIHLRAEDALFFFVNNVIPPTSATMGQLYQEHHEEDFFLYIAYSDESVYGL

Binder: B1
- binding result [1]: binds

Binder: B2
- stoichiometry N [2]: 1 CCPG1 FIR2 S104E per FIP200 chain (2:2)

Binder: B3
- Kd [3]: ~12 µM

Binder: B4
- stoichiometry N [4]: 2

Binder: B5
- Kd [3]: ~307 µM

Binder: B6
- binding result (nano-FIP200(1450–1594)): binds

Binder: B7
- binding result (nano-FIP200(1450–1594)): binds

Binder: B8
- binding result (nano-FIP200(1450–1594)): binds

Binder: B9
- binding result [3]: binds
- Kd (GABARAP): ~27 µM
